Data as given in the supplement of paper PMC9732359.
± gives the uncertainty stated by the source.

Assay: protein stability index of a GFP-peptide fusion (yeast GPS) (PSI 1-4); higher = more stable; sorted into four equal gates, so the index is relative within each strain
How it was run: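 Tiled 17-residue yeast protein peptides were fused downstream of GFP in a plasmid that also expresses Cherry, and the pooled library was carried in yeast. Mid-log cultures in leucine-free medium were sorted into four equal gates by GFP/Cherry fluorescence ratio, and plasmids from each gate were PCR-amplified and Illumina-sequenced, with reads assigned to strains by barcodes. The protein stability index for each peptide was each gate's read frequency times its gate number, summed.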

| Sequence | protein stability index (doa10∆) | protein stability index (pdr5∆) | protein stability index (san1∆) | protein stability index (ubr1∆) |
| --- | --- | --- | --- | --- |
| LGLLTPEVVELCQKSPV [FAS2] | 2.28 ± 0.071 | 2.73 ± 0.066 | 2.11 ± 0.12 | 2.93 ± 0.081 |
| LGLYVGVDDQILATNSL [YJL039C/NUP192] | 2.64 ± 0.092 | 3.06 ± 0.12 | 2.3 ± 0.11 | 1.73 ± 0.16 |
| LGTIESAQAETEALLLE [DIS3] | 2.92 ± 0.1 | 3.09 ± 0.092 | 3.18 ± 0.097 | 2.82 ± 0.062 |
| LGVASFHGTSTKANDKN [FAS2] | 3.09 ± 0.079 | 2.95 ± 0.092 | 3.11 ± 0.075 | 3.02 ± 0.069 |
| LGYKAKQGFVIYRVRVR [RPL15A] | 2.22 ± 0.1 | 2.04 ± 0.11 | 2.06 ± 0.15 | 1.84 ± 0.11 |
| LGYKDTSVIQDLSEKIL [BRR2] | 2.77 ± 0.098 | 2.8 ± 0.098 | 2.81 ± 0.063 | 2.89 ± 0.065 |
| LHGLTPTAKDVEVIKQL [GAL11] | 3.08 ± 0.078 | 2.64 ± 0.13 |  | 2.26 ± 0.078 |
| LHKLQRMRLRALETENM [GRR1] | 1.46 ± 0.046 | 1.92 ± 0.059 | 1.47 ± 0.077 | 1.38 ± 0.032 |
| LHQHVVLKCLKSLESQR [RPC34] | 2.77 ± 0.11 | 2.58 ± 0.083 | 2.41 ± 0.095 | 2.53 ± 0.11 |
| LHQRTHKQVYPLRMETI [DSN1] | 2.28 ± 0.06 | 2.66 ± 0.042 | 2.44 ± 0.048 | 2.6 ± 0.039 |
| LHRLTPKNVKGEEDADE [RPN1] | 3.65 ± 0.26 |  |  |  |
| LHVVITLLREVVFTRLV [CSN12] | 1.26 ± 0.052 | 1.26 ± 0.047 | 1.14 ± 0.14 | 1.37 ± 0.083 |
| LIAEESEDDSESGKVFI [RPB2] | 3.03 ± 0.23 | 3.63 ± 0.29 | 3.48 ± 0.29 |  |
| LIDSLPGVDVSAEEQLR [SRB7] | 2.59 ± 0.064 | 2.23 ± 0.055 | 1.96 ± 0.068 | 1.84 ± 0.043 |
| LIEFQPSQGVHYKVPTD [MED6] | 2.6 ± 0.066 | 2.98 ± 0.061 | 2.93 ± 0.062 | 2.93 ± 0.046 |
| LIGCIPYSKNAVEQLAG [YDL088C/ASM4] | 3.08 ± 0.2 | 3.01 ± 0.14 | 2.94 ± 0.088 | 2.92 ± 0.27 |
| LIIDEIHLLHDDRGPVL [BRR2] | 2.98 ± 0.1 | 2.98 ± 0.1 | 3.23 ± 0.046 | 2.88 ± 0.099 |
| LIIDGFKSYATRTVITD [SMC2] | 2.82 ± 0.11 | 3.21 ± 0.09 | 2.99 ± 0.071 | 3.12 ± 0.083 |
| LIKAKNFLVFQGDVEQI [SMC1] | 2.63 ± 0.19 | 3.15 ± 0.12 | 2.41 ± 0.17 | 2.76 ± 0.23 |
| LIKFVDLSRNGRNGSNG [NUT1] | 3.08 ± 0.074 | 3.2 ± 0.099 | 3.15 ± 0.068 | 3.2 ± 0.069 |
| LILAGQVKVKGQLGEMA [YCS4] | 3.49 ± 0.1 | 3.35 ± 0.097 | 3.12 ± 0.069 | 2.87 ± 0.072 |
| LILIPGETMWVPIKSSK [RPN13] | 2.17 ± 0.083 | 2.51 ± 0.068 | 2.61 ± 0.057 | 1.81 ± 0.055 |
| LIPTIFRYITTWENEFL [PRP8] | 2.38 ± 0.056 | 2.04 ± 0.047 | 1.75 ± 0.054 | 2.21 ± 0.034 |
| LIQEHDSRKNREQSSND [BRN1] | 3.38 ± 0.078 | 3.38 ± 0.06 | 3.19 ± 0.081 | 3.45 ± 0.094 |
| LIQSTEFPSITSSVILG [YOR098C/NUP1] | 3.16 ± 0.12 | 3.44 ± 0.11 | 2.11 ± 0.13 | 3.17 ± 0.079 |
| LIRRLVRVGVLSEDKKK [RPS9A] | 1.7 ± 0.24 | 1.45 ± 0.29 |  | 1.12 ± 0.18 |
| LISNLLFSKNRNEVLES [YCS4] | 1.96 ± 0.062 | 2.68 ± 0.06 | 2.97 ± 0.052 | 2.65 ± 0.056 |
